Data as given in PMC10020564, “Distinct inter-domain interactions of dimeric versus monomeric α-catenin link cell junctions to filaments” (Communications Biology, 2023).

B1: full-length human α-catenin (residues 1–906) (natural protein, UniProt P35221 1-906, looked up)
chain: MTAVHAGNINFKWDPKSLEIRTLAVERLLEPLVTQVTTLVNTNSKGPSNKKRGRSKKAHVLAASVEQATENFLEKGDKIAKESQFLKEELVAAVEDVRKQGDLMKAAAGEFADDPCSSVKRGNMVRAARALLSAVTRLLILADMADVYKLLVQLKVVEDGILKLRNAGNEQDLGIQYKALKPEVDKLNIMAAKRQQELKDVGHRDQMAAARGILQKNVPILYTASQACLQHPDVAAYKANRDLIYKQLQQAVTGISNAAQATASDDASQHQGGGGGELAYALNNFDKQIIVDPLSFSEERFRPSLEERLESIISGAALMADSSCTRDDRRERIVAECNAVRQALQDLLSEYMGNAGRKERSDALNSAIDKMTKKTRDLRRQLRKAVMDHVSDSFLETNVPLLVLIEAAKNGNEKEVKEYAQVFREHANKLIEVANLACSISNNEEGVKLVRMSASQLEALCPQVINAALALAAKPQSKLAQENMDLFKEQWEKQVRVLTDAVDDITSIDDFLAVSENHILEDVNKCVIALQEKDVDGLDRTAGAIRGRAARVIHVVTSEMDNYEPGVYTEKVLEATKLLSNTVMPRFTEQVEAAVEALSSDPAQPMDENEFIDASRLVYDGIRDIRKAVLMIRTPEELDDSDFETEDFDVRSRTSVQTEDDQLIAGQSARAIMAQLPQEQKAKIAEQVASFQEEKSKLDAEVSKWDDSGNDIIVLAKQMCMIMMEMTDFTRGKGPLKNTSDVISAAKKIAEAGSRMDKLGRTIADHCPDSACKQDLLAYLQRIALYCHQLNICSKVKAEVQNLGGELVVSGVDSAMSLIQAAKNLMNAVVQTVKASYVASTKYQKSQGMASLNLPAVSWKMKAPEKKPLVKREKQDETQTKIKRASQKKHVNPVQALSEFKAMDSI
notes: Cloned into pGEX-6P-1; residues of the PreScission site may remain at the N-terminus after cleavage; The same protein elutes as a monomer peak and a dimer peak, which were pooled separately; also called human monomeric α-catenin; human dimeric α-catenin; source: E. coli BL21(DE3), purified (GST Sepharose, PreScission cleavage, Superdex S200; monomer and dimer peaks pooled separately); not shown: …
B2: human α-catenin (residues 22–906) (domain or fragment, UniProt P35221 22-906, looked up)
chain: TLAVERLLEPLVTQVTTLVNTNSKGPSNKKRGRSKKAHVLAASVEQATENFLEKGDKIAKESQFLKEELVAAVEDVRKQGDLMKAAAGEFADDPCSSVKRGNMVRAARALLSAVTRLLILADMADVYKLLVQLKVVEDGILKLRNAGNEQDLGIQYKALKPEVDKLNIMAAKRQQELKDVGHRDQMAAARGILQKNVPILYTASQACLQHPDVAAYKANRDLIYKQLQQAVTGISNAAQATASDDASQHQGGGGGELAYALNNFDKQIIVDPLSFSEERFRPSLEERLESIISGAALMADSSCTRDDRRERIVAECNAVRQALQDLLSEYMGNAGRKERSDALNSAIDKMTKKTRDLRRQLRKAVMDHVSDSFLETNVPLLVLIEAAKNGNEKEVKEYAQVFREHANKLIEVANLACSISNNEEGVKLVRMSASQLEALCPQVINAALALAAKPQSKLAQENMDLFKEQWEKQVRVLTDAVDDITSIDDFLAVSENHILEDVNKCVIALQEKDVDGLDRTAGAIRGRAARVIHVVTSEMDNYEPGVYTEKVLEATKLLSNTVMPRFTEQVEAAVEALSSDPAQPMDENEFIDASRLVYDGIRDIRKAVLMIRTPEELDDSDFETEDFDVRSRTSVQTEDDQLIAGQSARAIMAQLPQEQKAKIAEQVASFQEEKSKLDAEVSKWDDSGNDIIVLAKQMCMIMMEMTDFTRGKGPLKNTSDVISAAKKIAEAGSRMDKLGRTIADHCPDSACKQDLLAYLQRIALYCHQLNICSKVKAEVQNLGGELVVSGVDSAMSLIQAAKNLMNAVVQTVKASYVASTKYQKSQGMASLNLPAVSWKMKAPEKKPLVKREKQDETQTKIKRASQKKHVNPVQALSEFKAMDSI
notes: Modified pET28 vector; By the printed forward primer the residues GPHM would remain before T22 after PreScission cleavage (surmise); The dimer was used for the complex with F-actin; in the map only residues 710–871 are ordered; also called Δ1–21 α-catenin; human dimeric α-catenin Δ1–21; source: E. coli BL21(DE3), purified (HisTrap, PreScission cleavage, reverse HisTrap, Superdex S200); not shown: …
B3: human α-catenin Δ1–81 (domain or fragment, UniProt P35221 82-906, looked up)
chain: ESQFLKEELVAAVEDVRKQGDLMKAAAGEFADDPCSSVKRGNMVRAARALLSAVTRLLILADMADVYKLLVQLKVVEDGILKLRNAGNEQDLGIQYKALKPEVDKLNIMAAKRQQELKDVGHRDQMAAARGILQKNVPILYTASQACLQHPDVAAYKANRDLIYKQLQQAVTGISNAAQATASDDASQHQGGGGGELAYALNNFDKQIIVDPLSFSEERFRPSLEERLESIISGAALMADSSCTRDDRRERIVAECNAVRQALQDLLSEYMGNAGRKERSDALNSAIDKMTKKTRDLRRQLRKAVMDHVSDSFLETNVPLLVLIEAAKNGNEKEVKEYAQVFREHANKLIEVANLACSISNNEEGVKLVRMSASQLEALCPQVINAALALAAKPQSKLAQENMDLFKEQWEKQVRVLTDAVDDITSIDDFLAVSENHILEDVNKCVIALQEKDVDGLDRTAGAIRGRAARVIHVVTSEMDNYEPGVYTEKVLEATKLLSNTVMPRFTEQVEAAVEALSSDPAQPMDENEFIDASRLVYDGIRDIRKAVLMIRTPEELDDSDFETEDFDVRSRTSVQTEDDQLIAGQSARAIMAQLPQEQKAKIAEQVASFQEEKSKLDAEVSKWDDSGNDIIVLAKQMCMIMMEMTDFTRGKGPLKNTSDVISAAKKIAEAGSRMDKLGRTIADHCPDSACKQDLLAYLQRIALYCHQLNICSKVKAEVQNLGGELVVSGVDSAMSLIQAAKNLMNAVVQTVKASYVASTKYQKSQGMASLNLPAVSWKMKAPEKKPLVKREKQDETQTKIKRASQKKHVNPVQALSEFKAMDSI
notes: also called human dimeric α-catenin Δ1–81; human monomeric α-catenin Δ1–81; source: E. coli BL21(DE3) (said of all α-catenin constructs)

Molecular target: the molecule itself
Experiment: SEC-MALS; separately pooled dimer peak of a size exclusion run; Superdex S200 10/300 GL, 20 mM Tris-HCl pH 8, 150 mM NaCl, 0.2 mM TCEP, 0.5 ml/min
With B1 the “stoichiometry N” value was 2.
In the case of B2, the “stoichiometry N” value is reported as 2.
In the case of B3, the “stoichiometry N” value is reported as 2.
